B1: scFv; the commonest letter at each place (parent)
chain 1: EVKLDETGGGLVQPGRPMKLSCVASGFTFSDYWMNWVRQSPEKGLEWVAQIRNKPYNYETYYSDSVKGRFTISRDDSKSSVYLQMNNLRVEDMGIYYCTGSYYGMDYWGQGTSVTVS
chain 2: DVVMTQTPLSLPVSLGDQASISCRSSQSLVHSNGNTYLRWYLQKPGQSPKVLIYKVSNRFSGVPDRFSGSGSGTDFTLKISRVEAEDLGVYFCSQSTHVPWTFGGGTKLEIK

Experiments:
fluorescein = variants of: B1; experiment: Kd (Tite-Seq); conditions: with fluorescein; format: scFv 4-4-20, heavy + light
[1] = variants of: B1; experiment: yeast surface expression (ratio to wild type); higher = more expressed; conditions: format: scFv 4-4-20, heavy + light

chain 1 EVKLDETGGGLVQPGRPMKLSCVASGFTFSDYWMNWVRQSPEKGLEWVAQIRNKPYNYETYYSDSVKGRFTISRDDSKSSVYLQMNNLRVEDMGIYYCTGSYYGWDYKGQGTSVTVS chain 2 DVVMTQTPLSLPVSLGDQASISCRSSQSLVHSNGNTYLRWYLQKPGQSPKVLIYKVSNRFSGVPDRFSGSGSGTDFTLKISRVEAEDLGVYFCSQSTHVPWTFGGGTKLEIK [chain 1 M105W W108K]
Kd (fluorescein): 2.88 µM | yeast surface expression [1]: 0.363

chain 1 EVKLDETGGGLVQPGRPMKLSCVASGFTFSDYWMNWVRQSPEKGLEWVAQIRNKPYNYETYYSDSVKGRFTISRDDSKSSVYLQMNNLRVEDMGIYYCTGSYYGMDYACQGTSVTVS chain 2 DVVMTQTPLSLPVSLGDQASISCRSSQSLVHSNGNTYLRWYLQKPGQSPKVLIYKVSNRFSGVPDRFSGSGSGTDFTLKISRVEAEDLGVYFCSQSTHVPWTFGGGTKLEIK [chain 1 W108A G109C]
Kd (fluorescein): ≥ 10 µM | yeast surface expression [1]: 0.197

chain 1 EVKLDETGGGLVQPGRPMKLSCVASGFSFSDYWMNWSRQSPEKGLEWVAQIRNKPYNYETYYSDSVKGRFTISRDDSKSSVYLQMNNLRVEDMGIYYCTGSYYGMDYWGQGTSVTVS chain 2 DVVMTQTPLSLPVSLGDQASISCRSSQSLVHSNGNTYLRWYLQKPGQSPKVLIYKVSNRFSGVPDRFSGSGSGTDFTLKISRVEAEDLGVYFCSQSTHVPWTFGGGTKLEIK [chain 1 T28S V37S]
Kd (fluorescein): 0.00785 µM | yeast surface expression [1]: 0.757

chain 1 EVKLDETGGGLVQPGRPMKLSCVASGFTMSDMWMNWVRQSPEKGLEWVAQIRNKPYNYETYYSDSVKGRFTISRDDSKSSVYLQMNNLRVEDMGIYYCTGSYYGMDYWGQGTSVTVS chain 2 DVVMTQTPLSLPVSLGDQASISCRSSQSLVHSNGNTYLRWYLQKPGQSPKVLIYKVSNRFSGVPDRFSGSGSGTDFTLKISRVEAEDLGVYFCSQSTHVPWTFGGGTKLEIK [chain 1 F29M Y32M]
Kd (fluorescein): 0.0171 µM | yeast surface expression [1]: 1.21

chain 1 EVKLDETGGGLVQPGRPMKLSCVASGFTFSDYWMNWVRQSPEKGLEWVAQIRNKPYNYETYYSDSVKGRFTISRDDSKSSVYLQMNNLRVEDMGIYYCTGRYYTMDYWGQGTSVTVS chain 2 DVVMTQTPLSLPVSLGDQASISCRSSQSLVHSNGNTYLRWYLQKPGQSPKVLIYKVSNRFSGVPDRFSGSGSGTDFTLKISRVEAEDLGVYFCSQSTHVPWTFGGGTKLEIK [chain 1 S101R G104T]
Kd (fluorescein): ≥ 10 µM | yeast surface expression [1]: 0.647

chain 1 EVKLDETGGGLVQPGRPMKLSCVASGFTFSDYWMNWVRQSPEKGLEWVAQIRNKPYNYETYYSDSVKGRFTISRDDSKSSVYLQMNNLRVEDMGIYYCTSSYYGQNYWGQGTSVTVS chain 2 DVVMTQTPLSLPVSLGDQASISCRSSQSLVHSNGNTYLRWYLQKPGQSPKVLIYKVSNRFSGVPDRFSGSGSGTDFTLKISRVEAEDLGVYFCSQSTHVPWTFGGGTKLEIK [chain 1 G100S M105Q D106N]
Kd (fluorescein): ≥ 10 µM | yeast surface expression [1]: 0.522

chain 1 EVKLDETGGGLVQPGRPMKLSCVASGFTFSDYWMNWVRQSPEKGLEWVAQIRNKPYNYETYYSDSVKGRFTISRDDSKSSVYLQMNNLRVEDMGIYYCTGSYLYMDYWGQGTSVTVS chain 2 DVVMTQTPLSLPVSLGDQASISCRSSQSLVHSNGNTYLRWYLQKPGQSPKVLIYKVSNRFSGVPDRFSGSGSGTDFTLKISRVEAEDLGVYFCSQSTHVPWTFGGGTKLEIK [chain 1 Y103L G104Y]
Kd (fluorescein): ≥ 10 µM | yeast surface expression [1]: 0.604

chain 1 EVKLDETGGGLVQPGRPMKLSCVASGFTFSDYWINSVRQSPEKGLEWVAQIRNKPYNYETYYSDSVKGRFTISRDDSKSSVYLQMNNLRVEDMGIYYCTGSYYGMDYWGQGTSVTVS chain 2 DVVMTQTPLSLPVSLGDQASISCRSSQSLVHSNGNTYLRWYLQKPGQSPKVLIYKVSNRFSGVPDRFSGSGSGTDFTLKISRVEAEDLGVYFCSQSTHVPWTFGGGTKLEIK [chain 1 M34I W36S]
Kd (fluorescein): ≥ 10 µM | yeast surface expression [1]: 0.556

chain 1 EVKLDETGGGLVQPGRPMKLSCVASGFTFSDYWMNWVRQSPEKGLEWVAQIRNKPYNYETYYSDSVKGRFTISRDDSKSSVYLQMNNLRVEDMGIYYCTGSYYGMDYVGQGTSVTVS chain 2 DVVMTQTPLSLPVSLGDQASISCRSSQSLVHSNGNTYLRWYLQKPGQSPKVLIYKVSNRFSGVPDRFSGSGSGTDFTLKISRVEAEDLGVYFCSQSTHVPWTFGGGTKLEIK [chain 1 W108V]
Kd (fluorescein): ≤ 0.000316 µM | yeast surface expression [1]: 0.831

chain 1 EVKLDETGGGLVQPGRPMKLSCVASGFTFSDYWMNWVRQSPEKGLEWVAQIRNKPYNYETYYSDSVKGRFTISRDDSKSSVYLQMNNLRVEDMGIYYCTGVVYGMDYWGQGTSVTVS chain 2 DVVMTQTPLSLPVSLGDQASISCRSSQSLVHSNGNTYLRWYLQKPGQSPKVLIYKVSNRFSGVPDRFSGSGSGTDFTLKISRVEAEDLGVYFCSQSTHVPWTFGGGTKLEIK [chain 1 S101V Y102V]
Kd (fluorescein): ≥ 10 µM | yeast surface expression [1]: 0.432

chain 1 EVKLDETGGGLVQPGRPMKLSCVASGFTFSDYWMNWVRQSPEKGLEWVAQIRNKPYNYETYYSDSVKGRFTISRDDSKSSVYLQMNNLRVEDMGIYYCTGYYYGTDYWGQGTSVTVS chain 2 DVVMTQTPLSLPVSLGDQASISCRSSQSLVHSNGNTYLRWYLQKPGQSPKVLIYKVSNRFSGVPDRFSGSGSGTDFTLKISRVEAEDLGVYFCSQSTHVPWTFGGGTKLEIK [chain 1 S101Y M105T]
Kd (fluorescein): ≥ 10 µM | yeast surface expression [1]: 0.44

chain 1 EVKLDETGGGLVQPGRPMKLSCVASGFTFSDQNMNWVRQSPEKGLEWVAQIRNKPYNYETYYSDSVKGRFTISRDDSKSSVYLQMNNLRVEDMGIYYCTGSYYGMDYWGQGTSVTVS chain 2 DVVMTQTPLSLPVSLGDQASISCRSSQSLVHSNGNTYLRWYLQKPGQSPKVLIYKVSNRFSGVPDRFSGSGSGTDFTLKISRVEAEDLGVYFCSQSTHVPWTFGGGTKLEIK [chain 1 Y32Q W33N]
Kd (fluorescein): ≥ 10 µM | yeast surface expression [1]: 0.726
